Results: publication PMC10865995

Columns and labels:
Assay in all cases: EMSA
SRSF1 wild type = SRSF1 wild type (human, UniProt Q07955 1-248)
SRSF1 P89S = SRSF1 P89S (human, UniProt Q07955 1-248, P89S)
SRSF1 E60D = SRSF1 E60D (human, UniProt Q07955 1-248, E60D)
SRSF1 E60D, sequence (Q07955 whole entry E60D): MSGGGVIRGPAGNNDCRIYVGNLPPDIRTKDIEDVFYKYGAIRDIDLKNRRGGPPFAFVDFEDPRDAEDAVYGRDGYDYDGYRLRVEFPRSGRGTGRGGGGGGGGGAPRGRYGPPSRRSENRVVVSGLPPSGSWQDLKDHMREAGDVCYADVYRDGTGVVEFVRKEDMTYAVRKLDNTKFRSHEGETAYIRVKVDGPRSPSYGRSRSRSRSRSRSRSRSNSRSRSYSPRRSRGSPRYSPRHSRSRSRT

SRSF1 P89S, sequence (Q07955 whole entry P89S): as the sequence (Q07955 whole entry E60D) above, with D60E, P89S counted along it
SRSF1 wild type, sequence (Q07955 whole entry): as the sequence (Q07955 whole entry E60D) above, with D60E counted along it

B1: ssRNA (64mer) (ssRNA)
RNA: UUUCCCAGCACCAGAUUCAGCAUACGUUACCGAUCGUACGUUCGAUGCUGGCUACUGCUAGCUU
- binding result (SRSF1 wild type): binds
- binding result (SRSF1 P89S): no binding
- binding result (SRSF1 E60D): binds
